Experiment [1] deals with T1, human IL2Rα Fc fusion protein (human, UniProt P01589 22-213, limits assumed).
T1 construct: also called CD25; not shown: Fc part
T1 sequence (looked up): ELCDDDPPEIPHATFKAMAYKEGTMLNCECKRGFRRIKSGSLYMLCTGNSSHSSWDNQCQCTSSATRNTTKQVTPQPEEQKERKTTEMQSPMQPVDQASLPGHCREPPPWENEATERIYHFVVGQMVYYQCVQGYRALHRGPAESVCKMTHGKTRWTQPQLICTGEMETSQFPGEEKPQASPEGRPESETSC
Kind of experiment: ELISA on coated receptor-Fc, anti-His detection; grade by OD450 (medium: 0.7-1.5). How it is done: (§1) Mammalian cell-produced agonists were characterized for their binding activities to respective IL2Rβ and IL2Rα receptors by ELISA. Briefly, 384 well plate was immobilized with human IL2Rα and IL2Rβ Fc fusion proteins at a final concentration of 2 μg/mL in 1× PBS in total volume of 25 μL per well. The plate was incubated overnight at 4° C. and blocked with 80 μL of superblock per well for 1 hour. The purified clones were added to IL2Rα or IL-2Rβ wells in parallel in duplicates as a titration, with the highest concentration of 1 μM, followed by a 10 point 5× serial dilution of the clones. The binding activity was detected by adding 25 μL of anti-His HRP diluted at 1:5000 in 1× PBST. In between each step, the plate was washed three times with 1× PBST using a plate washer. The plate was then developed with 25 μL of TMB substrate for five minutes and stopped by adding 25 μL of 2N sulfuric acid. The plate was read at OD450 nm Biotek plate reader and the bar graph at 1 μM of IL2 was generated with Prism 8.1 software (FIG. 2).

Experiment [2] concerns the target T2, human IL2Rβ Fc fusion protein (human, UniProt P14784 27-239).
T2 construct: also called ILR2β; CD122; not shown: Fc part
T2 sequence (looked up): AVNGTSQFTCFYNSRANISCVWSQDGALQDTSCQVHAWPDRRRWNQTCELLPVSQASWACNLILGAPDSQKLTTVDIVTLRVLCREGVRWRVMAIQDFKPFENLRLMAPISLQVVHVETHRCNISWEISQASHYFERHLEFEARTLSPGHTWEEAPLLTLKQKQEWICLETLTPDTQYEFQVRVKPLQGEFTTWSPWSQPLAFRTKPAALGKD
The description is as above. How it is done:
as §1

The target of experiment [3] is T2, human IL2Rβ Fc fusion protein. Nature of the experiment: ELISA on coated receptor-Fc, anti-His detection, single point 1 µM. How it is done:
Back-mutations were characterized for their binding activities to IL2Rβ and IL2Rα receptors by ELISA. Briefly, 384 well plate was immobilized with human IL2Rα and IL2Rβ Fc fusion proteins at a final concentration of 2 μg/mL in 1× PBS in total volume of 25 μL per well. The plate was incubated overnight at 4° C. and blocked with 80 μL of superblock per well for 1 hour. […] The IL2 mutant binding was detected by adding 25 μL of anti-His HRP diluted at 1:5000 in 1× PBST. In between each step, the plate was washed three times with 1× PBST using a plate washer. […] The plate was then developed with 25 μL of TMB substrate for five minutes and stopped by adding 25 μl of 2N sulfuric acid. The plate was read at OD450 nm Biotek plate reader (Table 6) and the data was analyzed with Prism 8.1 software to generate bar graph (FIG. 5).

For experiment [4] the target is unchanged. Kind of experiment: SPR (Biacore T200), receptor captured on Protein A chip, IL2 at 100 nM and 20 nM. How it is done:
(§2) The assay was run with Biacore T200 control software version 2.0. For each cycle, 1 μg/mL of human IL2Rβ or IL2Rα was captured for 60 seconds at flow rate of 10 μL/min on flow cell 2 in 1× HBSP buffer on Protein A sensor chip. 100 nM and 20 nM of HIS tag purified engineered IL2 mutant was injected onto both reference flow cell 1 and IL2Rβ or IL2Rα captured flow cell 2 for 150 seconds at flow rate of 30 μL/min followed by washing for 300 seconds. The flow cells were then regenerated with Glycine pH 2 for 60 seconds at a flow rate of 30 μL/mins. The kinetics data was analyzed with Biacore T200 evaluation software 3000. The specific binding response unit was derived from subtraction of binding to reference flow cell 1 from target flow cell 2.

Experiment [5] has the same target. Nature of the experiment: ELISA: human IL2Rβ Fc fusion coated at 2 µg/mL, purified His-tagged IL2 titrated from 1 µM in 5x steps, anti-His HRP, OD450. How it is done:
as §1

Experiment [6] shares this target. Kind of experiment: SPR (Biacore T200), receptor captured on Protein A chip. How it is done:
as §2

Experiment [7] concerns the target T1, human IL2Rα Fc fusion protein. Kind of experiment: ELISA, single concentration, anti-flag detection, E. coli-produced clone. The method, then:
(§3) Supernatants containing engineered IL2 mutants were assessed with sandwich ELISA assay to screen for IL2Rα binding. Briefly, 96-well plate was immobilized with human Fc and human IL2Rα, respectively, at a final concentration of 2 μg/mL in 1× PBS in total volume of 50 μL per well. The plate was incubated overnight at 4° C. followed by blocking with 200 μL of superblock per well for 1 hour. 100 μl of supernatant was added to both Fc and IL2Rα immobilized wells and incubated for 1 hour with shaking. The engineered IL2 mutant binding was detected by adding 50 μL of anti-Flag HRP diluted at 1:5000 in 1× PBST. In between each step, the plate was washed three times with 1× PBST in a plate washer. The plate was then developed with 50 μL of TMB substrate for five minutes and stopped by adding 50 μL of 2N sulfuric acid. The plate was read at OD450 nm using a Biotek plate reader and the binding and selectivity was analyzed.
as §3, with “Single clones were next screened for IL2Rβ binding. IL2Rβ binding screening ELISA was developed for the identification of individual” for “Supernatants containing”, “mutant.” for “mutants were assessed with sandwich ELISA assay to screen for IL2Rα binding.”, “IL2Rβ,” for “IL2Rα,”, “IL2Rβ” for “IL2Rα”
(§4) To further triage, the engineered IL2 clones with unique sequences were produced in E. coli. In short, the glycerol stock of each engineered agonist clone was inoculated into TB medium for overnight growth. The next day, cells from the overnight culture were inoculated into TB medium and grown to a cell density of OD₆₀₀ between 0.6-0.8. IPTG was added to a final concentration of 1 mM to induce the expression during culture at 30° C. overnight. The supernatant was collected by centrifugation.

The target of experiment [8] is T2, human IL2Rβ Fc fusion protein. Described as above. The method, then:
as §3
as §3, with “Single clones were next screened for IL2Rβ binding. IL2Rβ binding screening ELISA was developed for the identification of individual” for “Supernatants containing”, “mutant.” for “mutants were assessed with sandwich ELISA assay to screen for IL2Rα binding.”, “IL2Rβ,” for “IL2Rα,”, “IL2Rβ” for “IL2Rα”
as §4

Experiment [9] deals with T1, human IL2Rα Fc fusion protein. Nature of the experiment: SPR (Biacore T200), receptor captured on Protein A chip, IL2 at 100 nM and 20 nM. How it is done:
as §2

B1: EP565, mammalian cell-produced, with F35L, R38D and F42R (ligand)
chain: APASSSTKKTQLQLEHLLLDLQMILNGINNYKNPLLTDMLTRKFYMPKKATELKHLQCLEEELKPLEEVLNLAQSKNFHLRSRQLISNMNGIILKLKGSETTFMCEYADETATIVEFLNRWITFSQSIISTLT
notes: His-Flag tag not in the parts; also called 2021EP22-F10
Regarding B1, the OD450 in [1] and in experiment [2] was 0.7 to 1.5 od in each case.

B2: EP596, IL2Rβ enhanced binding agonist (ligand)
chain: APASSSTKKTQLQLEHLLLDLQMILNGINNYKNPLLTDMLTRKFYMPKKATELKHLQCLEEELKPLEEVLNLAQSKNFHLTARDAIDNINVIVQELKGSETTFMCEYADETATIVEFLNRWITFSQSIISTLT
notes: Control in SPR and ELISA
As for B2, the “Average OD (450 nm)” value in experiment [3] is 1.63 OD450. Binding in experiment [4] was characterised by a dissociation constant (Kd) of 1.03 nM. Besides, in experiment [5], the concentration for a half-maximal effect (EC50 (read off the curve)) was approximately 1 nM.

B3: EP567 (clone 2021EP21-C04), E. coli-produced (ligand)
chain: APASSSTKKTQLQLEHLLLDLQMILNGINNYKNPKLTRMLTFKFYMPKKATELKHLQCLEEELKPLEEVLNLAQSKNFHLSLREPIGNIVTSVRELKGSETTFMCEYADETATIVEFLNRWITFSQSIISTLT
With B3, the binding result in experiment [6] is “no binding (tested: Rmax < 5RU; 100 nM and 20 nM)”. Also, the OD450 nm in experiment [7] was found to be 0.05 OD450; in experiment [8], 0.068 OD450. Moreover, the dissociation constant (Kd) in experiment [9] turned out to be 188 nM.

B4: EP568 (clone 2021EP16-H06), E. coli-produced (ligand)
chain: APASSSTKKTQLQLEHLLLDLQMILNGINNYKNPKLTRMLTFKFYMPKKATELKHLQCLEEELKPLEEVLNLAQSKNFHLLAKRTVSNMYVRVEELKGSETTFMCEYADETATIVEFLNRWITFSQSIISTLT
On to B4, for which, in experiment [6], the binding result is “no binding (tested: Rmax < 5RU; 100 nM and 20 nM)”. In addition, the OD450 nm in experiment [7] amounted to 1.25 OD450; in experiment [8], 0.105 OD450.
